Source: patent publication EP1063290A1, “NOVEL DICARBONYLREDUCTASE AND GENE ENCODING THE SAME” (TAISHO PHARMACEUTICAL CO., LTD, priority 1998, dated 1999)

What was measured:
Assay in all cases: purified protein, by the assay type
[1] = substrate: CC(=O)C(C)=O
[2] = substrate: CCC(=O)C(C)=O
[3] = substrate: CCCC(=O)C(C)=O
[4] = substrate: CCC(=O)C(=O)CC
[5] = substrate: O=C(CBr)C(=O)CBr; details: other: assay at pH 7.0, 25.0 °C
Experimental: The enzyme used here was an expressed recombinant enzyme. • (a) Substrate specificity: In order to determine the substrate specificity, there may be used a hydrocarbon system including various ketone, aldehyde and ester groups, or an aromatic compound.
The reaction mixture (total: 2.0 ml) comprised an 80 mM potassium phosphate solution (pH 7.0 or 6.0), 0.1 mM NADPH or NADH and a carbonyl substrate or enzyme (50 µl) (10.1 µg or 3.7 µg of hDCR1).
The oxidation rate for NAD(P)H was measured at 340 nm.
One unit of enzyme activity was defined as that which catalyzed oxidation of 1 µmol of NAD(P)H in one minute at 25°C.

[6] = substrate: COC(=O)C(=O)c1ccccc1; details: other: rate constants for the major substrates, mouse enzyme; pH 7.0; 25.0 °C
Experimental: (§1) The enzyme activity assay method is not particularly restricted, and it may be based on the activity assay method for mouse carbonyl reductase (CR) (Eur. J. Biochem. 22, 381-387(1995)).
(§2) • (1) This was assayed under the following conditions. The reaction mixture (total: 2.0 ml) comprised an 80 mM potassium phosphate solution (pH 7.0 or 6.0), 0.1 mM NADPH or NADH and a carbonyl substrate or enzyme (50 µl) (10.1 µg or 3.7 µg of glomerin B). The oxidation rate for NAD(P)H was measured at 340 nm. One unit of enzyme activity was defined as that which catalyzed oxidation of 1 µmol of NAD(P)H in one minute at 25°C. • (2) The substrate specificity of protein DCR1 for carbonyl compounds is summarized in Table 1. • (3) pH dependency of diacetyl reductase activity due to protein DCR1 The activity was measured using 10 mM diacetyl, and the specific activity was calculated based on the protein concentration in the protein DCR1 sample (Fig. 7).

[7] = substrate: CC(=O)C(=O)c1ccccc1; details: pH 7.0; 25.0 °C
Experimental: as §1, §2

[8] = substrate: CC(=O)C(C)O; details: other: rate constants for the major substrates, mouse enzyme; pH 7.0; 25.0 °C
Experimental: as §1, §2

[9] = substrate: COC(=O)C(C)=O; details: other: rate constants for the major substrates, mouse enzyme; pH 7.0; 25.0 °C
Experimental: as §1, §2

[10] = substrate: O=Cc1ccncc1; details: other: rate constants for the major substrates, mouse enzyme; pH 7.0; 25.0 °C
Experimental: as §1, §2

[11] = substrate: CCCCC(=O)C(C)=O; details: other: rate constants for the major substrates, mouse enzyme; pH 7.0; 25.0 °C
Experimental: as §1, §2

[12] = substrate: O=Cc1cccnc1; details: other: rate constants for the major substrates, mouse enzyme; pH 7.0; 25.0 °C
Experimental: as §1, §2

[13] = other: assay at pH 7.0, 25.0 °C
[14] = other: rate constants for the major substrates, mouse enzyme, pH 7.0, 25.0 °C

B1: protein hDCR1 (Homo sapiens) (protein)
chain: MELFLAGRRVLVTGAGKGIGRGTVQALHATGARVVAVSRTQADLDSLVRECPGIEPVCVDLGDWEATERALGSVGPVDLLVNNAAVALLQPFLEVTKEAFDRSFEVNLRAVIQVSQIVARGLIARGVPGAIVNVSSQCSQRAVTNHSVYCSTKGALDMLTKVMALELGPHKIRVNAVNPTVVMTSMGQATWSDPHKAKTMLNRIPLGKFAEVEHVVNAILFLLSDRSGMTTGSTLPVEGGFWAC
Km [1, 13]: (0.25) mM
Km [2, 13]: (0.26) mM
Km [3, 13]: (0.24) mM
Km [4, 13]: (0.12) mM
Km [5]: (0.016) mM

B2: protein DCR1 (Mus musculus) (protein)
chain: MDLGLAGRRALVTGAGKGIGRSTVLALKAAGAQVVAVSRTREDLDDLVRECPGVEPVCVDLADWEATEQALSNVGPVDLLVNNAAVALLQPFLEVTKEACDTSFNVNLRAVIQVSQIVAKGMIARGVPGAIVNVSSQASQRALTNHTVYCSTKGALDMLTKMMALELGPHKIRVNAVNPTVVMTPMGRTNWSDPHKAKAMLDRIPLGKFAEVENVVDTILFLLSNRSGMTTGSTLPVDGGFLAT
Km [1, 14]: 900 µM
Km [6]: 690 µM
Vmax [6]: 8.7 unit/mg
Vmax/Km [6]: 13 unit/mg/mM
Km [7]: 140 µM
Vmax [7]: 6.7 unit/mg
Vmax/Km [7]: 48 unit/mg/mM
Km [8]: 6,500 µM
Vmax [8]: 0.51 unit/mg
Vmax/Km [8]: 0.08 unit/mg/mM
Km [9]: 1,700 µM
Vmax [9]: 2.7 unit/mg
Vmax/Km [9]: 1.6 unit/mg/mM
Km [2, 14]: 280 µM
Vmax [2, 14]: 5.7 unit/mg
Vmax/Km [2, 14]: 20 unit/mg/mM
Km [3, 14]: 230 µM
Vmax [3, 14]: 4.1 unit/mg
Vmax/Km [3, 14]: 18 unit/mg/mM
Km [4, 14]: 130 µM
Vmax [4, 14]: 6.6 unit/mg
Vmax/Km [4, 14]: 51 unit/mg/mM
Km [10]: 4,400 µM
Vmax [10]: 0.78 unit/mg
Vmax/Km [10]: 0.18 unit/mg/mM
Km [11]: 200 µM
Vmax [11]: 4.4 unit/mg
Vmax/Km [11]: 22 unit/mg/mM
Km [12]: 7,900 µM
Vmax [12]: 0.62 unit/mg
Vmax/Km [12]: 0.08 unit/mg/mM
